The test system of data set [1] is MS2 coat protein. Nature of the data set: apparent KD of MS2 coat protein, switch OFF state (with FMN for OFF switches, without FMN for ON switches); designed switch direction (-1 OFF switch, 1 ON switch): -1; higher = weaker reporter binding. As to conditions: FMN input: 0 or 200 uM; Eterna round: R93 (includes R88 designs). An outline of the steps:
(§1)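 The designed RNA switches were transcribed on-chip from Illumina sequencing clusters. In 100 mM Tris-HCl pH 7.5, 80 mM KCl and 4 mM MgCl2, without or with constant ligand, they were titrated with SNAP-549-labelled MS2 coat protein from 0.7 or 1.5 nM to 3 µM in twofold steps. Apparent KD is the per-design median of normalised cluster binding-curve fits.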

Data set [2] has as its system MS2 coat protein. Nature of the data set: apparent KD of MS2 coat protein, switch ON state; designed switch direction (-1 OFF switch, 1 ON switch): -1; higher = weaker reporter binding. Particulars: FMN input: 0 or 200 uM; Eterna round: R93 (includes R88 designs). The method in brief:
as §1

20 sequences from the supplement of paper PMC9170038 can be followed below.

“AAGAAUGGAGGAUAUACAUGAGGAUCACCCAUGUAAAAGAAAGAAAAGGGAAAGAAAAGUAGAAGGCCAAAGAA [Sekhaenre/Akhenre Merenptah Siptah]”: the “apparent KD of MS2 coat protein” value in the data set with MS2 coat protein [1] stood at 41 nM; in the data set on MS2 coat protein [2], 28.5 nM.

Turning to “AAGAACCAAGGAUAUACAUGAGGAUCACCCAUGUAAAAGAAAGAAAAGGGAAAGAAAAGUAGAAGGUGGAAGAA [Userkheperure Seti II]”, the figures for the “apparent KD of MS2 coat protein” value in the data set with MS2 coat protein [1] and in the data set on MS2 coat protein [2] were 27.3 nM and 25.7 nM, respectively.

Regarding “GGUUGGCGAGGAUAUACAUGAGGAUCACCCAUGUGAGAGAAAAAAGAGAGAAAGAAAAGUAGAAGGCGCUGACG [salish99-ex3-52]”, the results for the “apparent KD of MS2 coat protein” value in the data set on MS2 coat protein [1] and in the data set on MS2 coat protein [2] were 97.8 nM and 47.9 nM, respectively.

For “CUCAAGUGAGGAUAUACAAAUAGUAAAUAAGUAUAACAAAAGUAGAAGGCACAUGAGGAUCACCCAUGUAAAUA [JR_Exc004_Sub302]”, the “apparent KD of MS2 coat protein” value with MS2 coat protein [1] turned out to be 26.3 nM; in the data set with MS2 coat protein [2] it was 29.4 nM.

As for “GGUUGUGGAGGAUAUACAUGAGGAUCACCCAUGUGAGAGAAAAAAGUGAGAAAGAAAAGUAGAAGGUCAUGACG [salish99-ex3-65]”, the “apparent KD of MS2 coat protein” value was determined as 46.8 nM in the data set with MS2 coat protein [1] and 33.8 nM in the data set with MS2 coat protein [2].

As for “UCCAGACAUGAGGAUCACCCAUGUCAGGAUAUCUAGAAAACCUCAUGUAAAAAAAACUAGAGAAGGGAUAUGGA [Design 95: Pseudoknot E]”, the figures for the “apparent KD of MS2 coat protein” value with MS2 coat protein [1] and in the data set on MS2 coat protein [2] were 14.8 nM and 15.2 nM, respectively.

Regarding “AAGAAGUGAGGAUAUGCUUGUCGUCACAAAAGUGAUGACGAGCAGAAGGCACAUGAGGAUCACCCAUGUAAAGA [Opal 27]”, the “apparent KD of MS2 coat protein” value is 49.9 nM in the data set with MS2 coat protein [1] and 37.1 nM with MS2 coat protein [2].

On to “AAAAUGUGAGGAUAUCUGGAUAGGAAAAAGAAAACCUAUCCAGAGAAGGCACAUGAGGAUCACCCAUGUAAAAA [JL cataway mod 4]”, for which the “apparent KD of MS2 coat protein” value is 114 nM in the data set on MS2 coat protein [1] and 121 nM in the data set on MS2 coat protein [2].

For the sequence “AAGAAGCUAGGAUAUACAUGAAAGAAAGAAAAGAAAAGAAAACAUGAGGAUCACCCAUGUAGAAGGAGCUAGAA [EteRNA is fun!]”, the figures for the “apparent KD of MS2 coat protein” value in the data set on MS2 coat protein [1] and in the data set with MS2 coat protein [2] were 32.5 nM and 33.1 nM, respectively.

On to “AAGAAGUCAGGAUAUGCUGCUCGUCACAAAAGUGAUGAGUAGCAGAAGGGACAUGAGGAUCACCCAUGUAAACA [Opal 34]”, for which the “apparent KD of MS2 coat protein” value turned out to be 47.2 nM with MS2 coat protein [1] and 37.6 nM in the data set with MS2 coat protein [2].

Regarding “CAGUACUGAGGAUAUACAUGAGGAUCACCCAUGUGUAAAAGCUAGGAAACUAGCAAAUGUAGAAGGCAGUACUG [Ex3: 816]”, the “apparent KD of MS2 coat protein” value in the data set with MS2 coat protein [1] was 36.5 nM; with MS2 coat protein [2], 13.8 nM.

In the case of “AAGAACUGAGGAUAUACAUGAGGAUCACCCAUGUAAAAGAAAGAAGGGAAAGAGAAAAGUAGAAGGCAGAAGAA [Inamunnifnebu]”, the “apparent KD of MS2 coat protein” value in the data set with MS2 coat protein [1] is 27.8 nM; with MS2 coat protein [2], 20.6 nM.

As for “GAAAAGUGAGGAUAUUCGGAUAGGAAAACGAAAACCUAUCCGAAGAAGGCACAUGAGGAUCACCCAUGUGGAAG [Mat - Exaclusion 4 - Eli mod - D46]”, the “apparent KD of MS2 coat protein” value was 30.7 nM with MS2 coat protein [1] and 26.1 nM with MS2 coat protein [2].

Turning to “AGAAAGUCAGGAUAUACAGAAAAAAAAACGAAAAAAAAUCUGUAGAAGGGACAUGAGGAUCACCCAUGUAAAGA [Mat - Exclusion 4 - Mayanna - D124]”, the “apparent KD of MS2 coat protein” value in the data set with MS2 coat protein [1] worked out at 36.8 nM; with MS2 coat protein [2], 66.1 nM.

Turning to “AGGAAACAUGAGGAUCACCCAUGUGAGGAUAUUCAAAAGAAAAGAAAAGAAAGAAGAAGAAGAAGGCACAAGAA [Khayu]”, the “apparent KD of MS2 coat protein” value amounted to 33.5 nM with MS2 coat protein [1] and 32.8 nM in the data set on MS2 coat protein [2].

For the sequence “AAAAAGAUAGGAUAUACGAACAUGUCAAAAGACGUGAAGGGACAUGAGGAUCACCCAUGUAGAAGGGUUAAAAA [JL Wide Open 38]”, the “apparent KD of MS2 coat protein” value came to 66.6 nM with MS2 coat protein [1] and 155 nM in the data set on MS2 coat protein [2].

Take “UUCGCACAUGAGGAUCACCCAUGUCAGGAUAUCGUGGCGGGAAAAACCGGGAAACGCACGAGAAGGGACACACA [EX1 Malc#18 Mod 15 - Jieux - Exclusion 1]”: the “apparent KD of MS2 coat protein” value stood at 51.5 nM in the data set with MS2 coat protein [1] and 47.3 nM in the data set with MS2 coat protein [2].

For the sequence “AAAAGGUCAGGAUAUGCCCGCCGGGUGGGAAGGCCGGGUGGGUAGAAGGGACAUGAGGAUCACCCAUGUAAAAA [Opal 42]”, the “apparent KD of MS2 coat protein” value in the data set with MS2 coat protein [1] was 47.9 nM; in the data set on MS2 coat protein [2], 52.4 nM.

Consider “GAAAUACAUGAGGAUCACCCAUGUGAGGAUAUGCUAUGGAAAUAAAAAAUAAAACAUAGCAGAAGGUACAAAAG [Mat - Exclusion 1 - Eli mod - D43]”, for which the entries for the “apparent KD of MS2 coat protein” value in the data set on MS2 coat protein [1] and with MS2 coat protein [2] were 54.6 nM and 21.8 nM, respectively.

“AAUAAGUCAGGAUAUACUAAAGAAAUGAAAAGGGAUAAAGAACAUGAGGAUCACCCAUGUAGAAGGGACAAUAA [Sakir-Har]”: the figures for the “apparent KD of MS2 coat protein” value with MS2 coat protein [1] and in the data set on MS2 coat protein [2] were 51.6 nM and 93.2 nM, respectively.
